The source of these data is patent US20250250357A1 (NANJING ZAIMING PHARMACEUTICAL, published 2025).

Changes are numbered by the printed parent chain.

B1: S009-F3-63.5 (antibody, human IgG1, kappa, V domains shown)
VH: QVQLQQSGAELVRPGASVTLSCKASGYTFTDYEMHWVKQTPVHGLEWIGGIDPETGDTAYNQQFKGKAILTADRSSSTAYMELRSLTSEDSAVYYCTNYASSREDYWGQGTTLTVSS
VL: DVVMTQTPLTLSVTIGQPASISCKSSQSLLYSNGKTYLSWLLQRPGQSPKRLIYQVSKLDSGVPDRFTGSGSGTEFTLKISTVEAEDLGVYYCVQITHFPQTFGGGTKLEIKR
notes: Human-murine chimeric antibody: murine VH/VL on human IgG1 heavy and kappa light constant regions
B2: S009-F3.45.21 (antibody, human IgG1, kappa, V domains shown)
VH: DVQLQESGPGLVKPSQSLSLTCSVTGDSITSGYYWNWIRQFPGNKLEWMGFIRFDGTNNYNPSLKNRISITRDTSKNQFFLKLNSVTTEDTATYYCAREGSYAPAWFAYWGQGTLVTVSA
VL: QIVLTQSPAIMSASPGEKVTMTCSASSSLSYMYWYQQKPGSSPRLLIYDTSNLASGVPVRFSGSGSGTSYSLTISRMEAEDAATYYCQQWSSYPPTFGGGTKLEIKR
notes: as for B1
B3: S009-F3.38.10 (antibody, human IgG1, kappa, V domains shown)
VH: EVQLQQSGPVLVKPGASVKMSCEASGYIFTDYYMNWVKKSHGKSLEWIGVINPKNGVISHNQKFKGKATLTVDKSSNTAYMELSSLTSEDSAVYYCANYGSRFYAMDYWGQGTSVTVSS
VL: DVVMTQTPLSLPVSLGDQASISCRSSQSLIHSDGNTYLQWYLQKSGQSPKLLIYKVSNRFSGVPDRFSGSGSGTDFTLKISRVETEDLGVYFCSQTTHVPFTFGSGTKLEIKR
notes: as for B1
B4: S009-F3.80.22 (antibody, human IgG1, kappa, V domains shown)
VH: QVQLQQSGAELVRPGASVTLSCKASGYTFTDYEIHWVKQTPVHGLEWIGAFDPEIGGSAYNQKFKDRATLTADKSSSTAYMELHSLTAEDSAVYYCTDYYGSSSGYFDVWGTGTTVTVSS
VL: B3 VL with I30E, S32N, D33N, Q39H, Y41F, Q43H, S45P, T85A, T96S
notes: as for B1
B5: S009-F3.51.8 (antibody, human IgG1, kappa, V domains shown)
VH: QVQLQQSGAELVRPGASVTLSCKASGYTFTDYEMHWVKQTPVHGLEWIGGFDPETGGTAHNQKFKGKAILTADKSSSTAYMELRSLTSEDSAVYYCSNYGSIWGDCWGQGTSVTVSS
VL: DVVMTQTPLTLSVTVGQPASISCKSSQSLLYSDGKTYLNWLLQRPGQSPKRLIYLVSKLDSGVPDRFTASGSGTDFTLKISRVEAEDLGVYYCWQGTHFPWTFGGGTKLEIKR
notes: Human-murine chimeric antibody on human IgG1/kappa constant regions
B6: S009-F3.74.20 (antibody, human IgG1, kappa, V domains shown)
VH: RVQLQQSGAELVRPGASVTLSCKASGYTFTDSEMHWVKQTPVHGLEWIGAIDPEIDGTAYNQNFRDKAILTADKSSSTAYMELRSLTSEDSAVYYCTTYFGSGYGYFDVWGTGTTVTVSS
VL: DVVMTQTPLSLSVSLGDQASISCRSSQSLVYSNGNTYLHWFLQKPGQSPKLLIYKVSNRFSGVPDRFSGSGSGTDFTLKINRVEAEDLGVYFCSQSTHIPFTFGAGTKLELKR
notes: as for B1
B7: S009-F3.23.1 (antibody, human IgG1, kappa, V domains shown)
VH: QVQLQQSGADLVRPGASVTLSCKASGYTFTDYEMHWVKQTPVHGLEWIGAIDPETGDTVYNQNFKGKAILTADKSSSTAYMELRSLTSEDSAVYYCTRYGYDWGWGQGTTLTVSS
VL: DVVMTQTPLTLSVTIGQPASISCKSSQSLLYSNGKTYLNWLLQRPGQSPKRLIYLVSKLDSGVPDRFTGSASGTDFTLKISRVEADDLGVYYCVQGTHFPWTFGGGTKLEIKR
notes: as for B1

In the first test the target is T1, human MSLN-FL-his protein (human, UniProt Q13421 296-580).
T1 construct: Self-made in HEK293E cells; also called human MSLN full-length protein; hMSLN-FL-his; not shown: His tag
Put plainly: ELISA on coated antigen, antibody 1 nM. On the technique in general: In an ELISA, binding on a coated surface is turned into a signal by an enzyme label.
The molecule B1 registered an OD450 of 1.99 OD450.
Same read-out and setting: with B2 the figure was 1.75 OD450; with B3, 0.07 OD450; with B4, 1.97 OD450.
In turn, B5 came in with an OD450 of 1.93 OD450.
The same measure, in the same setting: with B6 the figure was 1.88 OD450.
On the same count and under the same terms, the value for B7 was 1.98 OD450.

Another test addresses T2, human MSLN-R1-his protein (human, UniProt Q13421 296-390).
T2 construct: Self-made in HEK293E cells; also called human MSLN-R1 protein; hMSLN-R1-his; not shown: His tag
T2 chain: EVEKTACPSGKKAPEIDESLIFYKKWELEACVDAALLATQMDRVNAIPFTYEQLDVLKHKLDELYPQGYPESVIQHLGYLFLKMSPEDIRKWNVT
The test can be described thus: ELISA on coated antigen, antibody 1 nM.
B1: the OD450 was 0.06 OD450.
Molecule B2 returned an OD450 of 0.06 OD450.
For the molecule B3, the OD450 was found to be 0.06 OD450.
For the molecule B4, the OD450 came out at 0.05 OD450.
In the case of B5, the OD450 is 0.06 OD450.
B6 registered an OD450 of 0.07 OD450.
Same read-out and setting: the value for B7 was 0.06 OD450.

The target of a further test is T1, human MSLN-FL-his protein. Put plainly: ELISA on coated antigen, antibody 10 nM.
Protocol: (§1) The plate was sealed with a plastic film and incubated at 4° C. overnight. The next day, the plate was washed twice with PBST, and a blocking buffer [PBS+2% (w/w) BSA] was added for blocking at room temperature for 2 h. The blocking buffer was discarded, and a chimeric antibody or negative control antibody serially diluted from 100 nM was added at 50 μL/well. After incubation at 37° C. for 2 h, the plate was washed 3 times with PBST. […] After incubation at 37° C. for 2 h, the plate was washed 5 times with PBST. A TMB substrate was added at 50 μL/well for incubation at room temperature for 5-10 min, and then a stop solution (1.0 N HCl) was added at 50 μL/well.
B1 showed an OD450 of 2.15 OD450.
Take B2: the OD450 amounted to 1.8 OD450.
Regarding B3, the OD450 was determined as 0.06 OD450.
Same read-out and setting: the value for B4 was 1.99 OD450.
The same measure, in the same setting: with B5 the figure was 2.06 OD450.
The same measure, in the same setting: the value for B6 was 1.97 OD450; that for B7 was 2.11 OD450.

A further test addresses T2, human MSLN-R1-his protein. The test can be described thus: ELISA on coated antigen, antibody 10 nM.
Protocol: as §1
The molecule B1 showed an OD450 of 0.07 OD450.
Still for that read-out and setting: with B2 the figure was 0.11 OD450.
B3 had an OD450 of 0.07 OD450.
For the molecule B4, the OD450 came to 0.06 OD450.
In turn, B5 gave an OD450 of 0.06 OD450.
With B6, the OD450 was 0.08 OD450.
B7: the OD450 is 0.06 OD450.

In the next test the target is T1, human MSLN-FL-his protein. Put plainly: ELISA on coated antigen, antibody 0.1 nM.
Protocol: as §1
Molecule B1 showed an OD450 of 1.72 OD450.
B2 returned an OD450 of 1.63 OD450.
B3: the OD450 turned out to be 0.07 OD450.
The molecule B4 registered an OD450 of 1.71 OD450.
The same measure, in the same setting: with B5 the figure was 1.68 OD450.
The molecule B6 came in with an OD450 of 1.59 OD450.
Still for that read-out and setting: with B7 the figure was 1.76 OD450.

The target in a further test is T1, human MSLN-FL-his protein. Put plainly: ELISA on coated antigen, antibody 100 nM.
Protocol: as §1
As to B1, the OD450 is 2.76 OD450.
With B2, the OD450 was 2.23 OD450.
Same read-out and setting: with B3 the figure was 0.1 OD450; with B4, 2.31 OD450; with B5, 2.58 OD450.
Consider B6, for which the OD450 came out at 2.17 OD450.
The molecule B7 had an OD450 of 2.39 OD450.

Another test has as its target T2, human MSLN-R1-his protein. The test can be described thus: ELISA on coated antigen, antibody 0.1 nM.
Protocol: as §1
Molecule B1 showed an OD450 of 0.05 OD450.
Same read-out and setting: the value for B2 was 0.05 OD450; that for B3 was 0.06 OD450.
Consider B4, for which the OD450 was determined as 0.06 OD450.
Same read-out and setting: the value for B5 was 0.06 OD450; that for B6 was 0.06 OD450.
The molecule B7 registered an OD450 of 0.06 OD450.

The target in a further test is T2, human MSLN-R1-his protein. The test can be described thus: ELISA on coated antigen, antibody 100 nM.
Protocol: as §1
Molecule B1 had an OD450 of 0.09 OD450.
B2 gave an OD450 of 0.65 OD450.
On the same count and under the same terms, the value for B3 was 0.11 OD450; that for B4 was 0.07 OD450; that for B5 was 0.07 OD450.
B6: the OD450 stood at 0.11 OD450.
On the same count and under the same terms, the value for B7 was 0.08 OD450.

The next test deals with T1, human MSLN-FL-his protein. Put plainly: ELISA on coated antigen, antibody 0.01 nM.
Protocol: as §1
As for B1, the OD450 is 0.62 OD450.
Same read-out and setting: the value for B2 was 0.69 OD450.
The molecule B3 registered an OD450 of 0.07 OD450.
B4 returned an OD450 of 0.69 OD450.
With B5, the OD450 came to 0.63 OD450.
Regarding B6, the OD450 was 0.42 OD450.
Same read-out and setting: the value for B7 was 0.7 OD450.

The next test addresses T2, human MSLN-R1-his protein. The test can be described thus: ELISA on coated antigen, antibody 0.01 nM.
Protocol: as §1
With B1, the OD450 amounted to 0.05 OD450.
The same measure, in the same setting: with B2 the figure was 0.06 OD450; with B3, 0.06 OD450.
The same measure, in the same setting: the value for B4 was 0.06 OD450; that for B5 was 0.07 OD450; that for B6 was 0.06 OD450.
In turn, B7 returned an OD450 of 0.06 OD450.

The next test concerns the target T1, human MSLN-FL-his protein. The test can be described thus: ELISA on coated antigen, antibody 0.001 nM.
Protocol: as §1
In turn, B1 returned an OD450 of 0.14 OD450.
As to B2, the OD450 stood at 0.35 OD450.
Same read-out and setting: the value for B3 was 0.06 OD450.
Still for that read-out and setting: with B4 the figure was 0.14 OD450.
The same measure, in the same setting: with B5 the figure was 0.14 OD450; with B6, 0.11 OD450.
In the case of B7, the OD450 came out at 0.15 OD450.

Another test deals with T2, human MSLN-R1-his protein. Put plainly: ELISA on coated antigen, antibody 0.001 nM.
Protocol: as §1
As to B1, the OD450 turned out to be 0.05 OD450.
Same read-out and setting: the value for B2 was 0.06 OD450; that for B3 was 0.07 OD450.
Regarding B4, the OD450 worked out at 0.06 OD450.
Same read-out and setting: with B5 the figure was 0.07 OD450.
Same read-out and setting: the value for B6 was 0.06 OD450.
On the same count and under the same terms, the value for B7 was 0.06 OD450.

The next test has as its target T1, human MSLN-FL-his protein. The test can be described thus: ELISA on coated antigen, antibody 0.0001 nM.
Protocol: as §1
As to B1, the OD450 came to 0.06 OD450.
B2: the OD450 was found to be 0.1 OD450.
Regarding B3, the OD450 turned out to be 0.06 OD450.
The same measure, in the same setting: the value for B4 was 0.07 OD450; that for B5 was 0.07 OD450.
For the molecule B6, the OD450 came out at 0.07 OD450.
B7 yielded an OD450 of 0.07 OD450.

Another test addresses T2, human MSLN-R1-his protein. Put plainly: ELISA on coated antigen, antibody 0.0001 nM.
Protocol: as §1
The molecule B1 yielded an OD450 of 0.05 OD450.
On the same count and under the same terms, with B2 the figure was 0.06 OD450; with B3, 0.07 OD450.
In turn, B4 registered an OD450 of 0.06 OD450.
As to B5, the OD450 was 0.07 OD450.
The same measure, in the same setting: the value for B6 was 0.06 OD450.
In turn, B7 yielded an OD450 of 0.07 OD450.

The next test deals with T1, human MSLN-FL-his protein. Put plainly: ELISA on coated antigen, no antibody (column none).
Protocol: as §1
In turn, B1 gave an OD450 of 0.06 OD450.
In turn, B2 registered an OD450 of 0.08 OD450.
On the same count and under the same terms, with B3 the figure was 0.07 OD450.
The same measure, in the same setting: with B4 the figure was 0.07 OD450.
Same read-out and setting: with B5 the figure was 0.08 OD450; with B6, 0.08 OD450; with B7, 0.07 OD450.

The target in another test is T2, human MSLN-R1-his protein. Put plainly: ELISA on coated antigen, no antibody (column none).
Protocol: as §1
In the case of B1, the OD450 stood at 0.06 OD450.
Same read-out and setting: with B2 the figure was 0.07 OD450; with B3, 0.07 OD450.
Still for that read-out and setting: the value for B4 was 0.06 OD450; that for B5 was 0.07 OD450; that for B6 was 0.07 OD450.
The same measure, in the same setting: with B7 the figure was 0.07 OD450.
